From article PMC5959011

What was measured:
[1] = target: tegument protein pUL25 (herpes simplex virus type 1 (HSV-1), strain KOS) (UniProt P10209); assay: cryo-EM structure
[2] = target: smallest capsid protein (SCP) VP26 (herpes simplex virus type 1 (HSV-1), strain KOS) (UniProt P10219); assay: cryo-EM structure

Substance | stoichiometry N [1] | stoichiometry N [2]
tegument protein pUL25 (from UniProt P10209 1-580) (natural protein) | 2 | 
smallest capsid protein (SCP) VP26 (from UniProt P10219 1-112) (natural protein) |  | 6
